Reference: US20240240141A1, “RAPID AND EFFICIENT CLINICAL GRADE PIGMENT EPITHELIUM INDUCTION METHOD, KIT, AND APPLICATION” (ALLIFE MEDICINE (ZHUHAI) LIMITED, priority 2021, published 2024)

System: iPSCs
Experiment: qPCR of PAX6 expression in iPSCs cultured in RDM1 with different BMP signaling pathway inhibitors
Assay type: cell-based
Settings: 50 ng/mL noggin in RDM1 culture medium, day 6, Day 0 as control; compared with 2 μM Dorsomorphin or 3 μM LDN-193189 (FIG. 9)
Description: 1. Collect 200W cells, adding 1 ml TRIZOL, extracting RNA and determining the RNA concentration. Taking 1 μg RNA and reverse-transcribing it into cDNA. Premixing according to the system as follows in Table 1.
2. Then putting the above system into the Light cycler instrument for reaction according to the 3-step method with a number of cycles of 45. The reaction system is as follows in Table 2:
iPSCs were cultured according to the method of Example 1. 50 ng/mL noggin, 2 μM Dorsomorphin or 3 μM LDN-193189 was added to the RDM1 culture medium as three sets of parallel controls. The expression level of PAX6 in the cells on day 6 was detected.
The results are shown in FIG. 9: Day 0 was used as a control. The expression level of PAX6 was detected after 6 days of cell differentiation.

B1: noggin (protein, UniProt Q13253 28-232, looked up)
Noggin: QHYLHIRPAPSDNLPLVDLIEHPDPIFDPKEKDLNETLLRSLLGGHYDPGFMATSPPEDRPGGGGGAAGGAEDLAELDQLLRQRPSGAMPSEIKGLEFSEGLAQGKKQRLSKKLRRKLQMWLWSQTFCPVLYAWNDLGSRFWPRYVKVGSCFSKRSCSVPEGMVCKPSKSVHLTVLRWRCQRRGGQRCGWIPIQYPIISECKCSC
With B1 the “expression level of PAX6” value was “the best effect and the highest expression level of PAX6”.
